Laboratory results: the DeepSol protein solubility set

Experiment: soluble on expression in E. coli; label from the status in PepcDB or PDB records

| Sequence | soluble on expression in E. coli |
| --- | --- |
| MGSDKIHHHHHHMKHGILVAYKPKGPTSHDVVDEVRKKLKTRKVGHGGTLDPFACGVLIIGVNQGTRILEFYKDLKKVYWVKMRLGLITETFDITGEVVEERECNVTEEEIREAIFSFVGEYDQVPPAYSAKKYKGERLYKLAREGKIINLPPKRVKIFKIWDVNIEGRDVSFRVEVSPGTYIRSLCMDIGYKLGCGATAVELVRESVGPHTIEESLNVFEAAPEEIENRIIPLEKCLEWLPRVVVHQESTKMILNGSQIHLEMLKEWDGFKKGEVVRVFNEEGRLLALAEAERNSSFLETLRKHERNERVLTLRKVFNTR | not soluble |
| MSIIAINENGFLDKIKGRNPLFTCVISSIETTLSIPISGVHRDVIKYTPSADVELVFYGKSLTLKTPPIDATGSPTPATITRACVELKNIKNLHIDAGAFVKPKIPFIEIDEKPTGRIEEGKAMNNSKELYMKGYLLGKNLDAELLIVGESVPGGTTTALGVLLGLGYDAEGKVSSGSINNPHELKIKVVREGLKKAGINEKSSVFDVLNAVGDKMMPVVAGLAISFAERNKPVILAGGTQMSAVLAVIKEINKKVLDKNLIAIGTTEFVLNDKKGDLKGIVEQIGNVPVLASKFYFEKAKIEGLKNYCKGSVKEGVGAGGIAVYSIVNDLEPTKIREFIENKFYEWYKE | soluble |
| SNAMNPIEFWFDFSSGYAFFAAQRIEALAAELGRTVLWRPYMLGAAFSVTGARGLSSTPLKRDYAQRDWARIARQRGLTFRPPADHPHVALAATRAFYWIEAQSPDAATAFAQRVFDLYFSDRLDTASPEAVSRLGPEVGLEPEALLAGIADPALKETVRKIGEDAVARGIFGSPFFLVDDEPFWGWDRMEMMAEWIRTGGW | soluble |
| MAHHHHHHVDDDDKMVSTTPAAGVLDTSVFIATESGRQLDEALIPDRVATTVVTLAELRVGVLAAATTDIRAQRLATLESVADMETLPVDDDAARMWARLRIHLAESGRRVRINDLWIAAVAASRALPVITQDDDFAALDGAASVEIIRV | soluble |
| MSLIPATLLLVEDDPDQRIIMQRKLQQQGYKVICAENGEEAVDLYNNNTIDLVLMDAQLPGMDGFEACFLITHTETGSRCPVMMITSLENSESVDRAFQVGAEEYVPKPIHWKVLMQRIRRQIKSRRVHQEGHHHHHH | soluble |
| MNPLLTDSRRQALRSASHWYAVLSGERVSPQQEARWQQWYEQDQDNQWAWQQVENLRNQLGGVPGDVASRALHDTRLTRRHVMKGLLLLLGAGGGWQLWQSETGEGLRADYRTAKGTVSRQQLEDGSLLTLNTQSAADVRFDAHQRTVRLWYGEIAITTAKDALQRPFRVLTRQGQLTALGTEFTVRQQDNFTQLDVQQHAVEVLLASAPAQKRIVNAGESLQFSASEFGAVKPLDDESTSWTKDILSFSDKPLGEVIATLTRYRNGVLRCDPAVAGLRLSGTFPLKNTDAILNVIAQTLPVKIQSITRYWINISPL | soluble |
| MSLKIVIIGGVAGGMSAATRLRRLMEDAEIVVMEKGPFVSFANCGLPYYVSGEIAEREQLLVQTPEALKARFNLDVRPHHEVVAIDPIEKVITVKHETEILTEHYDKLILSPGAKPFVPPITGLAEAKNVFSLRNVPDLDQIMTALTPETKRAVVIGAGFIGLEMAENLQKRGLEVTLVEKAPHVLPPLDEEMAAFVKAELSKNNVQVITGQSAVAFEEEGQVIRLEDGQTLASDLTILSVGVQPENTLAVEAGVATGLRGGIVVDEHYQTNQPDIYAVGDAIVVKQQITQEDALISLASPANRQGRQVADVIAGLERKNQGSIGTAIVRVFDLTAASTGLSERAAKAAGLTTAVVHISGKDHAGYYPGATDLQLKLVFHPTTGEIYGAQGIGAKGVDKRIDILATAIKGQLTIFDLPELEFTYAPPFGSAKDPVNMLGYAAMNLVEGLSENVQWYELSNELANGAVLLDVRNPAERANGQFKNAVSIPLNELRERLEELDKSTEYIVSCHSGLRSYIAERMLKQAGISAKNLDGAFALYRMVKPEELENEGHHHHHH | soluble |
| VEVLLGGDDGSLAFLPGDFSVASGEEIVFCNNAGFPHNVVFDEDEIPSGVDAAKISMSEEDLLNAPGECYKVTLTEKGTYKFYCSPHQGAGMVGKVTVN | soluble |
| GLAIEGPSEAKMSCKDNKDGSCTVEYIPFTPGDYDVNITFGGRPIPGSPFRVPVKDVVDPGKVKCSGPGLGAGVRARVPQTFTVDCSQAGRAPLQVAVLGPTGVAEPVEVRDNGDGTHTVHYTPATDGPYTVAVKYADQEVPRSPFKIKVLPAHDASKVRASGPGLNASGIPASLPVEFTIDARDAGEGLLTVQILDPEGKPKKANIRDNGDGTYTVSYLPDMSGRYTITIKYGGDEIPYSPFRIHALPTGDASKCLVTVSIGGHGLGACLGPRIQIGQETVITVDAKAAGEGKVTCTVSTPDGAELDVDVVENHDGTFDIYYTAPEPGKYVITIRFGGEHIPNSPFHVLACDPLPHEEEPSEVPQLRQPYAPPRPGARPTHWATEEPVVPVEPMESMLRPFNLVIPFAVQKGELTGEVRMPSGKTARPNITDNKDGTITVRYAPTEKGLHQMGIKYDGNHIPGSPLQFYVDAINSRHVSAYGPGLSHGMVNKPATFTIVTKDAGEGGLSLAVEGPSKAEITCKDNKDGTCTVSYLPTAPGDYSIIVRFDDKHIPGSPFTAKITGDDSMRTSQLNVGTSTDVSLKITESDLSQLTASIRAPSGNEEPCLLKRLPNRHIGISFTPKEVGEHVVSVRKSGKHVTNSPFKILVGPSEIGDASKVRVWGKGLSEGHTFQVAEFIVDTRNAGYGGLGLSIEGPSKVDINCEDMEDGTCKVTYCPTEPGTYIINIKFADKHVPGSPFTVKVTGEGRMKESITRRRQAPSIATIGSTCDLNLKIPGNWFQMVSAQERLTRTFTRSSHTYTRTERTEISKTRGGETKREVRVEESTQVGGDPFPAVFGDFLGRERLGSFGSITRQQEGEASSQDMTAQVTSPSGKVEAAEIVEGEDSAYSVRFVPQEMGPHTVAVKYRGQHVPGSPFQFTVGPLGEGGAHKVRAGGTGLERGVAGVPAEFSIWTREAGAGGLSIAVEGPSKAEIAFEDRKDGSCGVSYVVQEPGDYEVSIKFNDEHIPDSPFVVPVASLSDDARRLTVTSLQETGLKVNQPASFAVQLNGARGVIDARVHTPSGAVEECYVSELDSDKHTIRFIPHENGVHSIDVKFNGAHIPGSPFKIRVGEQSQAGDPGLVSAYGPGLEGGTTGVSSEFIVNTLNAGSGALSVTIDGPSKVQLDCRECPEGHVVTYTPMAPGNYLIAIKYGGPQHIVGSPFKAKVTGPRLSGGHSLHETSTVLVETVTKSSSSRGSSYSSIPKFSSDASKVVTRGPGLSQAFVGQKNSFTVDCSKAGTNMMMVGVHGPKTPCEEVYVKHMGNRVYNVTYTVKEKGDYILIVKWGDESVPGSPFKVKVP | soluble |
| MSLAEEISQTTAADTAVTEVRTEDSSQTSSQETAVTETTQSEGTASKQLTTPAVADQTTEPTDNEPISSSDGASSPYQVTDTTEPQQTLTPADSEPQAKADVQQAAAPKKEEINPVTNLEDMSHDTNGTWEVREDGIHSNAIGKGDSFLYSQSSGKNFVYATDVTFKQNSGAAALVFRSNNDSNNKNMYAVNVDIGGHKAKFWRWVDNKDIQLIDERDVVPTADNRYTLKVVAVNNWISYYVNDILMASTGDYVLQKADKGQNTVIPEGHFGLLNWNGDMVFQNTKFALLDDTTAPLIDNITVRSDRGNVEKQGQFFSEEPLHIQYVSNDASQVSLDIAKHNPAATVTVEDKTGRVYTDPSHLPVNVGANYFTVKSTVIDSFGRTVTLTYRINVHRRQNDEVYYNELYRDQYHYSVKDGWANDPNGLVYYNGVYHLFHQFYDDTKWGPMHWAHATSTDLIHWKEEPIAFYPDSNGYMFSGCVVVDEHNSSGLFKTAKGGLVAIITANGNGQRMELAYSEDEGKTWQKYDRIVADWSNDPLQNQDFRDPKVFHWNNQWFMVLAGGPLRIYSSNNLKDWKVESTYPDLHTECPDMYPIVANDGVLKWVLSRGGRFYKVGDFKQVDGKWTFIADDAYKDKDQVMNFGKDSYAAMTYYVHDFGTETRPTIPKLTEVNWMNTWEDYCNLVADTVGQDFNGTFNLNLDLGLINENGQYILTQTPVKAYDSLRDVNTALHFKDVTVDANNTLLKDFKGDSYEIVSHFRPDEKTTKVGFNLRVGNGQATKVIYDLQTETLSIDRSQSGTILSAAFAKVNSQHVTKNADGSIDLHIYVDRASVEVFSKNNTVAGANQIFPNPEAVGASIIVEGGKAQADISVYQMKTIWTDKKDTAKPVAMNTTTAKELALQVGQSQDLQVYLAPASVRQDVEWTISDPSLVRTSQKGNVLHLTAVKKGKLTITAISKENPSLSKTFTISITLNNFKTNLKGLQSVTGKWYVDDETLYDSNTSSNDYYMASQKPGFKEYDYDIDLKYQRGLINLFVASGNIDPSQAYSVQFGDSETVRLYRFAGDTIAEANMGKRINDDQYHHIKVTKTKNSIIISVDGQEVMSHNFDQVDSYFNDAYVGLGLWDGAVEFQNFFVTDHATTPKPDSDPTPQPDAPEALAQERELIDPATGVRVILQKGELASIVRVKVSHIETNDAHTPAVLNAKDYDLFNITPIDKNEKVVAITKPATVLLPIDAGKVVDKVVYLPNTDKEENLPFTIVSLTDSNGKKQSYVRFTAEHFSEYGLVYQAENQTNLKSKEKQDNVAISYPLNLEQEVKVSSISRKYAANKTADVNSVQQTEPSVMSSSPKATLPDTGDHKTDLSQLGVLAMIGSFLVEIAGYFKKRKDEGHHHHHH | soluble |
| MVFNFLIVSDEVEDFRREIAIDSEATFLDLQNAILDSVGYSHSELTSFFLCDEDWHKGQEITLMEMDTASDEDSYVMENTRLEEFIEDEHQRLVFEFDLMTERYFFIEVMDIVPGKSLSEPKLLTSEGLPPQQSSLDDLMDPTAIPTKQARGLDLEEDFFGDSEYNEDEIDREGFEGFDEITSDLSDNY | not soluble |
| MAHHHHHHMGTLEAQTQGPGSMSVFSGFPASPPDAILNLTVLYNADTNPKKVNLGVGAYRDESGKPWILPAVKEAEAIISSDLSKYNKEYPPVAGFPLFLEAAQFLMFGKDSKAAQEGRIASCQSLSGTGSLHIGFEFLHLWMPKAEFYMPSTTWPNHYGIYDKVFNKLKVPYKEYTYLRKDGELEIDFSNTKKDIQSAPEKSIFLFHACAHNPSGIDFTEAQWKELLPIMKEKKHIAFFDSAYQGFATGSFEADAFAVRMFVDAGVEVLVAQSFSKNFGLYGERIGCLHVVHAGVEGSVEKNKALSAAMVSGMTLQIRKTWSMSAIHGAYIVQVIVHDKRLLQMFYDNVKEMSARIHRMRSLLHASLAKRKTPGPGSKGTWDHILTAIGMFTFTGLTPEHVDYLKEKWSIYLVKAGGRMSMCGLTESNCDYVAEAIHDAVTKLPFKK | soluble |
| MMRNFGREFLEETSIFENKTCLIWRDREISFKEFHEYIGKWKNVLDEQKTKTTNPLRIALFCTNSPDILAIIVAGQLSGVTVIPLNPSYKKYEIDEYISKSIANFIIVSDDVDLDKFEEREVNLISELFTSNVTPSSTASTPENQGVIVFFSSGTTGPPKQFEYTQRILCSQIDQIKAIRSDPRFFSPSTDDICYGVLPFFHAGGLITILSMIFSGCTVLINERWNEHEFLANCQNYKVSVLFLVPPVLNFFANHPLVSSYDLSALKTIYVGAAASPPENFAKVAERLPELENLIQLYGTSECGVLLCSTGKGKASGKTVGWPFPFVELKINPENNEIFVKSATAMEEGFMETGDLGCLSFKTIELMIVGRSKEMMKIRGWQVNPNEVEDVIRKVEGVLDCAVYQNQEKLTAKIIGNPDSKADIFKIVKDNLASYKQLDDVIFVEELPRNPSGKLVRHMLH | not soluble |
| MKRMIVRMTLPLLIVCLAFSSFSASARAASEEKYWDHWIERHAQPLDASNASNKDLRFLKKVLKGKRIVQLGETTHGAGEINATKVRMIKYLHEELGYDVLAFESGFPDTNASYLNMDQLTPKSTMKNSIYAVWHTEDVVELFDYMKEQKEKGDPLILTGFDIQSMKNSFNVAATQWVKAVDPEKAELLSQSENDFSTLVTDSNTFDEFSQKKEKLVKNYQKLIKFTKTHASELKENLPKEPKAYEMFMHSLQLRIDVMETYMLEEMKEKLEEYPENIEDFSFFMRDRMMAEQFQWVADTLYPKKKIIVWGHNYHLRKQNTKMIKDWVQLNGPNMGDYLPERLKKQTYTIGIYAYSGASLDSSDNKTVKPVTSPPPSGSLEALLKAADRPAVFVDFLHTKNKKGTSWMYTPRTALYWGYMEEQMILKEQYDGVIWLEHITPSVIIKLEHHHHHH | not soluble |
